Experimental data taken from article PMC12503259, “Establishment of an in vivo analytical method for detecting total anti-UFH activity and pharmacokinetic study in PS and R15 in rats” (PLOS One, 2025).

How the values were obtained:
[1] = Specific activity, units of UFH neutralized per mg; assay type: biochemical; conditions: units of UFH exactly neutralized per milligram
Description: Since the toxicity of both PS and R15 correlates with their heparin antagonism capacity (i.e., potency), the units used for PS and R15 in most experiments are U·mL^-1 or U·kg^-1. Employing activity units (U) allows for a more scientifically rigorous comparison of the pharmacokinetic parameters of PS and R15 under equivalent activity levels (i.e., equivalent heparin antagonism capacity).
The specific activity of PS is 150 U·mg^-1, meaning that each milligram of PS can exactly neutralize 150 units of UFH. The specific activity of R15 is 170 U·mg^-1, meaning that each milligram of R15 can exactly neutralize 170 units of UFH. Therefore, expressing the concentration of PS as 1 U·mL^-1 denotes that each milliliter of the medium contains sufficient PS to neutralize 1 unit of UFH, and the same applies to R15.

[2] = Stability in rat plasma at room temperature for 30 min; assay type: in vitro ADME; conditions: for RE%: plasma sample, room temperature (25℃) for 30 min, n=6; for Measured concentration after storage, Mean ± SD / RE (%) versus nominal concentration: rat plasma, room temperature (25°C ± 1°C) for 30 min; for Measured concentration after storage, Mean ± SD: n = 6
Protocol: (§1) Processing of Plasma Samples: 100 μL of the unknown plasma sample was added to 500 μL of 75% methanol (methanol: water = 75:25, v/v) and vortex-mixed for 5 seconds. The mixture was then centrifuged at 12,000 r/min for 10 minutes at 25°C. The supernatant (500 μL) was collected and dried under nitrogen at 60°C. Subsequently, UFH (0.14 U·mL^-1 for PS and 0.15 U·mL^-1 for R15; 120 μL) was added, and the mixture was vigorously shaken at room temperature for 10 minutes. The residual UFH content was measured using the Heparin Anti-FXa assay kit.
(§2) The detailed procedure is as follows: Accurately pipette 40 μL of the sample into a 96-well plate. Place the plate in a microplate shaker. Using a multichannel pipette, add 40 μL of reagent R1 and mix by shaking. Incubate at 37 °C for exactly 3 minutes (start timing upon addition of R1; at 50 seconds, begin shaking with the microplate shaker for 1 minute, then place the plate in the incubator). Remove the 96-well plate from the incubator and place it on the open microplate shaker. Using a multichannel pipette, add 40 μL of reagent R2 to each well and incubate at 37 °C for 6 minutes (after adding R2, at 3 minutes and 50 seconds, open the microplate shaker and shake for 4 minutes, then return the plate to the incubator). Remove the 96-well plate from the incubator and place it on the open microplate shaker. Quickly add 40 μL of reagent R3 using a multichannel pipette and shake until 9 minutes and 10 seconds. At 9 minutes and 30 seconds, add 80 μL of 20% acetic acid to each well to terminate the reaction. Measure the absorbance at 405 nm using a microplate reader (Multiskan FC, Thermo Fisher US).
(§3) Two concentration levels (low and high QC) were evaluated for validation of storage stability and freeze/thaw stability. Two concentration levels of PS and R15 (low and high QC) in blank rat plasma were prepared (n = 6), respectively. Samples in rats’ plasma were determined after storage at room temperature (25°C ± 1°C) for 30 min. Samples in rats’ plasma were under three freeze (−80°C)-thaw (25°C) cycles. Stock solution of PS and R15 were stored at 4°C for a week. All the samples mentioned above were processed by calibration curves with adequate QC samples diluted from newly prepared stock solution of PS and R15, followed by procedure of sample determination (see “Sample Preparation”), respectively.

complement = conditions: under UFH excess; cited from earlier work
Description: PS and UFH-PS complexes activate complement. Complement fragments can accumulate in the pulmonary microcirculation, up-regulate endothelial adhesion molecules, and recruit neutrophils and monocytes, forming inflammatory microthrombi.

[3] = clinical use; cited from earlier work
Description: PS is a cationic protein mixture with a molecular weight of 4000–6000 Da, and is the only heparin antagonist approved for clinical use. PS is primarily extracted from the sperm of wild salmon species, and this cationic protein binds to the anionic heparin, forming a UFH-PS complex that neutralizes the activity of heparin [7–10]. However, PS is associated with several adverse reactions in clinical applications, such as systemic hypotension, pulmonary hypertension, and allergic reactions. Despite extensive exploration of its mechanisms, the underlying causes of PS-related a ...

[4] = Stability in rat plasma after three freeze-thaw cycles; assay type: in vitro ADME; conditions: for RE%: plasma sample, freeze-thaw three cycles in -20℃, n=6; for Measured concentration after storage, Mean ± SD / RE (%) versus nominal concentration: rat plasma, three freeze (−80°C)-thaw (25°C) cycles; for Measured concentration after storage, Mean ± SD: n = 6
Protocol: as §1, §2
Two concentration levels (low and high QC) were evaluated for validation of storage stability and freeze/thaw stability. Two concentration levels of PS and R15 (low and high QC) in blank rat plasma were prepared (n = 6), respectively. Samples in rats’ plasma were determined after storage at room temperature (25°C ± 1°C) for 30 min. […] Stock solution of PS and R15 were stored at 4°C for a week. All the samples mentioned above were processed by calibration curves with adequate QC samples diluted from newly prepared stock solution of PS and R15, followed by procedure of sample determination (see “Sample Preparation”), respectively.

[5] = Stability of stock solution at 4°C for a week; assay type: physicochemical; conditions: for Measured concentration after storage, Mean ± SD: stock solution (10 mg·mL^-1 in deionized water) stored 1 week at 4°C, n = 6; for Mean determined concentration, stability of stock solution / RE%: stock solution for 1 week; for Mean determined concentration, stability of stock solution: mean of n=6; for RE%: n=6; for RE (%) versus nominal concentration: stock solution stored 1 week at 4°C
Protocol: Preparation of Stock Solutions: Appropriate amounts of PS and R15 powders were accurately weighed and dissolved in deionized water to obtain stock solutions at 10 mg·mL^-1, respectively. This solution was stored in a refrigerator at 4 °C and replaced regularly.
as §3

[6] = nominal 0.7 μg·mL^-1, anti-FXa read-out at 405 nm
[7] = nominal 1.5 μg·mL^-1, anti-FXa read-out at 405 nm

In the case of Protamine sulfate [PS], the specific activity [1] is reported as 150 U·mg^-1, the RE% ([2]; nominal 0.70 μg/mL) is reported as 8.10% and the RE% ([2]; nominal 1.50 μg/mL) is reported as 4.44%. The “Measured concentration after storage, Mean ± SD” value [2, 6] was 0.76 ± 0.01 µg/mL, the “RE (%) versus nominal concentration” value ([2]; nominal 0.7 μg·mL^-1, n = 6) was 8.10% and the “Measured concentration after storage, Mean ± SD” value [2, 7] was 1.57 ± 0.09 µg/mL. For the same substance, the “RE (%) versus nominal concentration” value ([2]; nominal 1.5 μg·mL^-1, n = 6) was 4.44%, the “complement activation by UFH-PS complex relative to UFH–R15 complex” value (complement) was 8.28 fold and the “rate of mild adverse reactions” value [3] was at most 16%. The RE% ([4]; nominal 0.70 μg/mL) was 10.71%, the RE% ([4]; nominal 1.50 μg/mL) was 5.78% and the “Measured concentration after storage, Mean ± SD” value [4, 6] was 0.78 ± 0.02 µg/mL. The “RE (%) versus nominal concentration” value ([4]; nominal 0.7 μg·mL^-1, n = 6) was 10.71%, the “Measured concentration after storage, Mean ± SD” value [4, 7] was 1.59 ± 0.04 µg/mL and the “RE (%) versus nominal concentration” value ([4]; nominal 1.5 μg·mL^-1, n = 6) was 5.78%. The “Measured concentration after storage, Mean ± SD” value ([5]; then diluted to nominal 0.7 μg·mL^-1, anti-FXa read-out) was 0.59 ± 0.02 µg/mL, the “Measured concentration after storage, Mean ± SD” value ([5]; then diluted to nominal 1.5 μg·mL^-1, anti-FXa read-out) was 1.44 ± 0.04 µg/mL and the “Mean determined concentration, stability of stock solution” value ([5]; nominal 0.7 μg/mL) was 0.59 µg/mL. For the same substance, the “RE%” value ([5]; nominal 0.7 μg/mL) was -15.2%, the “Mean determined concentration, stability of stock solution” value ([5]; nominal 1.5 μg/mL) was 1.44 µg/mL and the “RE%” value ([5]; nominal 1.5 μg/mL) was -4.1%. The “RE (%) versus nominal concentration” value ([5]; nominal 0.7 μg·mL^-1, n = 6) was −15.2% and the “RE (%) versus nominal concentration” value ([5]; nominal 1.5 μg·mL^-1, n = 6) was −4.1%.
